The target in this test is T1, aggregated Aβ in plaques of the cerebral cortex of a patient with Alzheimer's disease (human (brain of a patient with …, UniProt P05067 672-713)).
T1 construct: Tissue section fixed in 4% formaldehyde, embedded in paraffin, pre-treated with formic acid; also called neurotic plaques
Description: immunolabeling of sections of Alzheimer's disease cerebral cortex. The source says: A section of the cerebral cortex of the brain of a patient with Alzheimer's disease was fixed in 4% formaldehyde and embedded in paraffin, then pre-treated with formic acid. […] Arrows indicate vessels in the serial sections.

T1 sequence (P05067 672-713): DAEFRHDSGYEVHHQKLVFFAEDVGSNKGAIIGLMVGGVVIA

B1: antibody 4396C (antibody, V domains shown)
VH: EVQLQQSGPELVKTGASVKISCKASGYSFTGYYMHWVKQSHGKSLEWIGYISCYNGATSYNQKFKGKATFTVDTSSSTAYMQFNSLTSEDSAVYYCARGANWVFDYWGQGTTLTVSS
VL: QAVVTQESALTTSPGGTVILTCRSSTGAVTTSNYANWVQEKPDHLFTGLIGGTSNRAPGVPVRFSGSLIGDKAALTITGAQTEDDAMYFCALWYSTHYVFGGGTKVTVLG
With B1, the binding result is “no binding”.

The record behind these values is patent US20040181042A1 (MEDICAL AND BIOLOGICAL LABORATORIES, published 2004).
